Legend:
murine heparanase = target: T1, murine heparanase (Mus musculus, UniProt Q6YGZ1); assay: Cross species capture ELISA, murine heparanase; type: binding; details: min 0.06, max 0.9 OD units
T1 construct: made in house; host or cells: Hek293 cells (conditioned medium), inferred for the ELISA
T1 sequence (Q6YGZ1 28-535): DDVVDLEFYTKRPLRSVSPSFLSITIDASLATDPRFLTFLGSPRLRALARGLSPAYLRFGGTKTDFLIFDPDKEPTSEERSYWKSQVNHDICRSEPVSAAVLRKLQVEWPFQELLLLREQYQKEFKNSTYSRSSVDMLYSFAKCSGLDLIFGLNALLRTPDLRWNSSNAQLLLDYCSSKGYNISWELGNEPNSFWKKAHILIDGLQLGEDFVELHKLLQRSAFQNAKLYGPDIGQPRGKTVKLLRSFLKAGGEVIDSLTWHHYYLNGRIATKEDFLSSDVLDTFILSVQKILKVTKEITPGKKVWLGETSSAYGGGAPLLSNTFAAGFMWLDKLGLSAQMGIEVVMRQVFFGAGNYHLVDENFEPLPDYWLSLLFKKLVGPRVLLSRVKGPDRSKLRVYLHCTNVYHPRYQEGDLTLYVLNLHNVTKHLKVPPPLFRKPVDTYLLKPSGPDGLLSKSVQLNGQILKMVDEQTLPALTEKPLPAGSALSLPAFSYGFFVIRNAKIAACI
Protocol: Initially, cross species binding to human, murine and cynomolgus heparanase was determined in an ELISA assay in which heparanase was captured onto plates using a rabbit anti-heparanase antibody (Raybiotech, Cat. IP-14-155). Exhaustive supernatants were added to the plates at a final dilution of 1:5 and bound antibody detected with a rabbit anti-human IgG Fc.

MCF7-Hpa1#19 cells = assay: Accumulation of precursor heparanase in conditioned medium and cell lysates (Western blot); type: cell-based, human; details: 25 μg per ml, 24 hrs
Protocol: MCF7-Hpa1#19 cells were cultured until confluent and then grown overnight (˜12 hrs) at 37° C. in serum free medium. Following overnight incubation, culture medium was replaced with serum free medium containing 25 μg per ml anti-heparanase monoclonal antibody 10E9.1 or a control IgG2 antibody (Sigma Cat. No. 1504-1MG) and incubated for a further 24 hrs at 37° C. Cell cultures were then treated for 2 hrs with PMA 0.1-10 μM, to stimulate heparanase expression (Sasaki N et al, J Immunol. 172: 3830, 2004). Conditioned medium from the cultures was harvested and concentrated 10-fold and protein lysates in RIPA buffer were prepared from the cells. Proteins from conditioned medium or cell lysates were separated on […] gels as described previously and heparanase was detected using an anti-heparanase polyclonal antibody (Biochain Cat. No. Z5010104).

[1] = system: HT1080 human fibrosarcoma cells; assay: FACS binding to cell surface heparanase, HT1080; type: cell-based; details: 5 or 10 μg per ml, 2 hrs at 37° C.
Protocol: Although heparanase is found as a secreted protein, a proportion of heparanase is found in conjunction with cell surface heparan sulfate. The ability of anti-human heparanase antibodies to bind to cell surface heparanase was tested in a FACS assay. HT1080 human fibrosarcoma cells, HCT116 human colorectal tumour cells and B16F10 AP3 murine melanoma cells were each seeded into 6-well plates and cultured for 48 hrs prior to the addition of anti-heparanase antibody 10E9.1 or control IgG2 antibody (Sigma Cat. No. 1504-1MG). Antibodies were added to the cells to a final concentration of 5 or 10 μg per ml and incubated with the cells for 2 hrs at 37° C. The cells were then washed with phosphate buffered saline (PBS) and harvested by incubation with trypsin. The cells were pelleted by centrifugation and resuspended in 0.5 ml PBS, 0.1% BSA containing 1/200 dilution of AlexaFluor 488 anti-human IgG. The cells were incubated for 1 hr at room temperature, washed with PBS/BSA, resuspended in PBS and analysed by FACS. […] The differences likely reflect a lower affinity for murine heparanase in addition to any differences in absolute heparanase expression.

[2] = target: T2, cell surface heparanase of parental MCF7 or MCF7-Hpa1#19 cells (Homo sapiens, UniProt Q9Y251); assay: Cell surface heparanase activity assay; type: cell-based; details: 5 or 25 μg per ml
T2 construct: an expression construct comprising a full-length human heparanase cDNA under the control of a CMV promoter; expressed in transfected cells; host or cells: MCF7-Hpa1#19 (pCR3.1 vector, CMV promoter); parental MCF7 cells run alongside carry only low endogenous heparanase
T2 sequence (Q9Y251 158-543): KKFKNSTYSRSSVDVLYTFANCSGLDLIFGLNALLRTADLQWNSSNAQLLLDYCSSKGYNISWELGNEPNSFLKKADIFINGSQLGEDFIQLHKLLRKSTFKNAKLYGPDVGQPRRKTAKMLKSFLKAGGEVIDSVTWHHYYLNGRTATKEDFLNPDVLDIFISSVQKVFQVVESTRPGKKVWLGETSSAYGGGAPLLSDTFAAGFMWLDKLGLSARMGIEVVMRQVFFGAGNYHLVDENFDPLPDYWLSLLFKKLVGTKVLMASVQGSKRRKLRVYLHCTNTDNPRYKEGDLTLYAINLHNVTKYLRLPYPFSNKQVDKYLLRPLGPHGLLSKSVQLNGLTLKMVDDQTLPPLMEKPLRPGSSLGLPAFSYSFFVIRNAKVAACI
T2 sequence (Q9Y251 36-109): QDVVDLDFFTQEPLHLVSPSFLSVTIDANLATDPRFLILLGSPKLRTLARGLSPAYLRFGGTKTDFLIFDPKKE
Protocol: Cell surface heparanase activity was measured by a modification of the methodology used in the recombinant enzyme screen (Example 4). Parental MCF7 or MCF7-Hpa1#19 cells were cultured in non-tissue culture (non-adherent) 96-well plates, seeded at 10^6 cells per well. After overnight incubation at 37° C. anti-heparanase 10E9.1 or control IgG2 (Sigma Cat. 1504-1MG) antibodies were added to the cells, to a final concentration of 0.04-25 μg per ml, and incubated for 1 hr at room temperature. Thereafter Biotin Heparan Sulfate Europium Criptate (CisBio Cat. No. 61BHSKAA) was added to the cells (final concentration 20 ng per ml) and incubated at 37° C. for 1 hr. Degradation of the heparan sulfate substrate was determined following the addition of Streptavidin-XL665 (final concentration 250 ng per ml; CisBio Cat. No. 611SAXLA) to the cells and fluorescence measured using excitation at 330 nm and emission at 670 nm. In the absence of anti-heparanase antibody or in the presence of control IgG2, the minimum fluorescence at 670 nm is the result of degradation of heparan sulfate (see FIG. 10).

B1: 10E9.1: fully human anti-heparanase monoclonal antibody, G2κ; VH SEQ ID NO 2, VL SEQ ID NO 4; ATCC PTA-9489 (antibody, listed as Homo Sapiens, V domains shown)
VH: QVQLVQSGAEVKKPGASVKVSCKVSGYSLTELSIHWVRQAPGKGLEWMGGFDPEDGEIIFAQKFQGRVTLTEDISLDTAYMEVSSLRSEDTAVYYCATEGHDSGDYVGYYYYGLDVWGQGTTVTVSS
VL: DIQMTQSPSSLSASVGDRVTITCRASQDIRNFLAWYQQKPGKLPKLLIYAASTLQSGVPSRFSGSGSGTDFTLTISSLQPEDVASYYCQSHNSVPFTFGPGTKVDIR
notes: fully human anti-heparanase monoclonal antibody, G2κ; ATCC PTA-9489
Binding to heparanase Mouse (murine heparanase): 0.49 OD units
Accumulation of precursor (65 kDa) heparanase in the culture medium (MCF7-Hpa1#19 cells; compared to control IgG2): accumulation of precursor (65 kDa) heparanase in the culture medium
PMA-stimulated increase in intracellular heparanase (MCF7-Hpa1#19 cells; then PMA 0.1-10 μM 2 hrs): appeared to be attenuated
Binding to cells by FACS [1]: bind extensively
Inhibition of cell surface heparanase activity [2]: complete inhibition of cell surface heparanase activity

— patent US20100233154A1, “TARGETED BINDING AGENTS DIRECTED TO HEPARANASE AND USES THEREOF 463” (MedImmune Limited, priority 2008, published 2010)
